Test results from US20150037340A1 (PEIRRE FABRE MEDICAMENT, published 2015).

Columns and labels:
[1] = target: T1, human protein Axl (cellular form on the cell surface) (human, UniProt P30530 26-894); assay: flow cytometry on SN12C cells, goat anti-mouse Alexa 488
T1 construct: also called Axl receptor; membrane Axl receptor
T1 sequence: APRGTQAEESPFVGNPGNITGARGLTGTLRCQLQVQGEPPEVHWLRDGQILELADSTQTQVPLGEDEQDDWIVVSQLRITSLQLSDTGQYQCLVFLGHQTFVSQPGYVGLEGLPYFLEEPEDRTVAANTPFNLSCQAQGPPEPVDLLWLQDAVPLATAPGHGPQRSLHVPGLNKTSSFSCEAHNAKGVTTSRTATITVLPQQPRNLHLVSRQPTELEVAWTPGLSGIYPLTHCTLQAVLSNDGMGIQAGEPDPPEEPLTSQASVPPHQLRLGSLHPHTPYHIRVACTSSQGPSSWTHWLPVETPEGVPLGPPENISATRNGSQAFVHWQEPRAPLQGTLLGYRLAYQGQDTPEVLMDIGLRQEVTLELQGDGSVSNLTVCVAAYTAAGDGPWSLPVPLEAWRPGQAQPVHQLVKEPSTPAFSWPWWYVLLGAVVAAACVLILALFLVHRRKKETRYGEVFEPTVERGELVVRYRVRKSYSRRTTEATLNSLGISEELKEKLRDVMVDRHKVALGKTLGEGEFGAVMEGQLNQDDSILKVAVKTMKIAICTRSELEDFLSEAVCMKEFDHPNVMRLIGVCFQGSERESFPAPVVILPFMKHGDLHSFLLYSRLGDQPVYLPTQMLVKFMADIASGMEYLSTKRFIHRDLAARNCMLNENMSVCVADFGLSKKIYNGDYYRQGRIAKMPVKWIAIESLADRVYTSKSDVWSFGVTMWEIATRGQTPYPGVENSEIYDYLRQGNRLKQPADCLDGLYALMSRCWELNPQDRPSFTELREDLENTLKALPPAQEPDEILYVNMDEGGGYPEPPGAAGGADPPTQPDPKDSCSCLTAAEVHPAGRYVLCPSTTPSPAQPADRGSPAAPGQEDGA
Method: (§1) For cell surface binding studies, two fold serial dilutions of a 10 μg/m (6.66 10⁻⁸ M) primary antibody solution (1613F12, MAB154 antibody or mIgG1 isotype control 9G4 Mab) are prepared and are applied on 2.10⁵ cells for 20 min at 4° C. After 3 washes in phosphate-buffered saline (PBS) supplemented with 1% BSA and 0.01% NaN₃, cells were incubated with secondary antibody Goat anti-mouse Alexa 488 (1/500° dilution) for 20 minutes at 4° C. After 3 additional washes in PBS supplemented with 1% BSA and 0.1% NaN₃, cells were analyzed by FACS (Facscalibur, Becton-Dickinson). At least 5000 cells were assessed to calculate the mean value of fluorescence intensity.

[2] = target: T1, human protein Axl (cellular form on the …); assay: flow cytometry on MDA-MB-231 cells, goat anti-mouse Alexa 488
Method: as §1

[3] = target: T2, human extracellular domain (ECD) of Axl, His-tagged (pCEP[AXL]His6, produced in HEK293E) (human, UniProt P30530 26-451); assay: SPR (Biacore X), antibody captured on CM5 chip, Axl ECD as analyte, 1:1 Langmuir model
T2 construct: also called human Axl ECD; rhAxl ECD; not shown: His6 tag
T2 sequence: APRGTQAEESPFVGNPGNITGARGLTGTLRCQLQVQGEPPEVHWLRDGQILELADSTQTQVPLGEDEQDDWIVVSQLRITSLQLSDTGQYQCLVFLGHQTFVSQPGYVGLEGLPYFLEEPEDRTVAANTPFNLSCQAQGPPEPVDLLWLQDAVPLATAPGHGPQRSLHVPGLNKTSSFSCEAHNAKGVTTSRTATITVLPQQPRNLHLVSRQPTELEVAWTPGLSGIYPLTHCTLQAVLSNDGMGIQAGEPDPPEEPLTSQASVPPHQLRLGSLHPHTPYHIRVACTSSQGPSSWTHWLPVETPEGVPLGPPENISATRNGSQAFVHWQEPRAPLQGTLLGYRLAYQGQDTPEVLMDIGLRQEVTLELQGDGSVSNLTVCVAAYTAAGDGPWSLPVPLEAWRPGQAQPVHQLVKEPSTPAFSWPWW
Method: Briefly, the experiments were realized using a sensor chip CM5 as the biosensor. Rabbit IgGs were immobilized on the flow cells 1 and 2 (FC 1 and FC2) of a CM5 sensor chip at a level of 9300-10000 response units (RU) using amine coupling chemistry to capture antibodies.
Binding is evaluated using multiple cycles. Each cycle of measure is performed using a flow rate of 30 μl/imin in a HBS-EP buffer. Then the Axl antibody to test is captured on the chip for 1 min on FC2 only to reach a mean capture value of 311.8 RU (SD=5.1 RU) for the 1613F12. The analyte (Axl ECD antigen) is injected starting at 200 nM and using two-fold serial dilutions to measure rough ka and kd in real time.
At the end of each cycle, the surfaces are regenerated by injecting a 10 mM glycine hydrochloride pH1.5 solution to eliminate the antibody-antigen complexes and the capture antibody as well. The considered signal corresponds to the difference of the signals observed between FC1 and FC2 (FC2-FC1). Association rates (ka) and dissociation rates (kd) were calculated using a one-to-one Langmuir binding model. The equilibrium dissociation constant (KD) is determined as the […]. The experimental values were analyzed in the Biaevaluation software version 3.0. A χ2 analysis will be performed to assess the accuracy of the data.

[4] = target: T1, human protein Axl (cellular form on the …); assay: flow cytometry on SN12C cells, anti-mouse IgG Alexa488; table under the graph, unit from the axis Log [M]
Method: Cells were detached using trypsin and cell concentration was adjusted at 1×10⁶ cells/ml in FACS buffer. A volume of 100 μL of cell suspension was incubated with increasing concentrations of either isotype controls or anti-Axl antibodies for 20 min. at 4° C. Cells were then washed three times with FACS buffer and incubated for 20 min. more using either anti-mouse IgG Alexa488 secondary antibody or anti-human IgG Alexa488 secondary antibody at 4° C. in the dark. Cells were washed three times with FACS buffer and resuspended with 100 μl of FACS buffer before adding propidium iodide.

B1: 1613F12 antibody (murine form) (antibody, V domains shown)
VH: EVHLQQSGAELVKPGASVKLSCTASGFNIRDTYIHWVKQRPEQGLEWIGRLDPANGHTKYGPNFQGRATMTSDTSSNTAYLQLSSLTSEDTAVYYCARGAYYYGSSGLFYFDYWGQGTTLSVSS
VL: DVQITQSPSYLATSPGETITINCRASKSISKYLAWYQEKPGKTNKLLIYSGSTLQSGVPSRFSGSGSGTDFTLTISSLEPEDFAMYFCQQHHEYPLTFGAGTELELK
notes: Whole murine monoclonal antibody purified from a hybridoma; a murine IgG1 (9G4) serves as its isotype control; also called m1613F12; monoclonal antibody 1613F12 derived from the hybridoma I-4505
[1]
  EC50 (read off the curve): ~1 nM
[2]
  EC50 (read off the curve): ~1 nM
[3]
  Kd: 2.29 nM
  koff: 0.000242 s⁻¹
  kon: 106000 M⁻¹ s⁻¹
[4]
  EC50: 2.16 nM
